# Source: US20200181263A1 (NUMAB THERAPEUTICS, published 2020)
# T1: cyno CD3 (cyno, UniProt Q95LI5 22-117)
# T1 sequence (looked up): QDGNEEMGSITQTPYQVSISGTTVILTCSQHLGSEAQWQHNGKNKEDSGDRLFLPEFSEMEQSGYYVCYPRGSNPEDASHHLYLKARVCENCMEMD
# T2: human IL-23 receptor ECD (human, UniProt Q5VWK5 24-355)
# T2 construct: extracellular domain
# T2 sequence (looked up): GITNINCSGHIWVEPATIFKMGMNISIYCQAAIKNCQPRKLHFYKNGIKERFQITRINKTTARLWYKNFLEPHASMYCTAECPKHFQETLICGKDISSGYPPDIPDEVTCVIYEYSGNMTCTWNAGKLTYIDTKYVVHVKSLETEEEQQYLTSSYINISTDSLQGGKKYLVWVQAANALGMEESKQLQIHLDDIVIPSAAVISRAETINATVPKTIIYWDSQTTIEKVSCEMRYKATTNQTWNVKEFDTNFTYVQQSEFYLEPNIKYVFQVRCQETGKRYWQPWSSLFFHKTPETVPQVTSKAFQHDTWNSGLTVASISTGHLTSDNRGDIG
# B1: PRO738 (other)
# chain 1: DIQMTQSPSSLSASVGDRVTITCQASENIYSFLAWYQQKPGKAPKLLIYSASKLAAGVPSRFSGSGSGTDFTLTISSLQPEDFATYYCQQTNRYSNPDIYNVFGTGTKVTVLGGGGGSGGGGSGGGGSGGGGSEVQLVESGGGLVQPGGSLRLSCAASGIDFNSNYYMCWVRQAPGKGLEWIGCIYVGSHVNTYYANWAKGRFTISRDNSKNTVYLQMNSLRAEDTAVYYCATSGSSVLYFKFWGQGTLVTVSSGGGGSGGGGSDIQMTQSPSSLSASVGDRVTITCQSSQSVFSNNYLAWFQQKPGQSPKRLIYSASTLASGVPSRFSGSGSGTDFTLTISSLQPEDFATYYCLGSYACSSADCYVFGCGTKVTVLGGGGGSGGGGSGGGGSDIQMTQSPSSLSASVGDRVTITCQSSESVYSNNQLSWYQQKPGQPPKLLIYDASDLASGVPSRFSGSGSGTDFTLTISSLQPEDFATYYCAGGFSSSSDTAFGGGTKLTVLG
# chain 2: DIQMTQSPSSLSASVGDRVTITCQASENIYSFLAWYQQKPGKAPKLLIYSASKLAAGVPSRFSGSGSGTDFTLTISSLQPEDFATYYCQQTNRYSNPDIYNVFGTGTKVTVLGGGGGSGGGGSGGGGSGGGGSEVQLVESGGGLVQPGGSLRLSCAASGIDFNSNYYMCWVRQAPGKGLEWIGCIYVGSHVNTYYANWAKGRFTISRDNSKNTVYLQMNSLRAEDTAVYYCATSGSSVLYFKFWGQGTLVTVSSGGGGSGGGGSEVQLVESGGGLVQPGGSLRLSCAASGFSLSSNAMGWVRQAPGKGLEYIGIISVGGFTYYASWAKGRFTISRDNSKNTVYLQMNSLRAEDTATYFCARDRHGGDSSGAFYLWGQGTLVTVSSGGGGSGGGGSGGGGSEVQLVESGGGLVQPGGSLRLSCAASGFSLSSYDMSWVRQAPGKCLAWIGASYASGPTYYASWAKGRFTISRDNSKNTVYLQMNSLRAEDTATYFCARGGWTGTSHSNIWGQGTLVTVSS
# notes: Hetero-dimeric MATCH, anti-parallel; diS in anti-CD3 domain, 15 aa GS-linker
# B2: PRO734 (other)
# chain 1: DIQMTQSPSSLSASVGDRVTITCQASENIYSFLAWYQQKPGKAPKLLIYSASKLAAGVPSRFSGSGSGTDFTLTISSLQPEDFATYYCQQTNRYSNPDIYNVFGTGTKVTVLGGGGGSGGGGSGGGGSGGGGSEVQLVESGGGLVQPGGSLRLSCAASGIDFNSNYYMCWVRQAPGKGLEWIGCIYVGSHVNTYYANWAKGRFTISRDNSKNTVYLQMNSLRAEDTAVYYCATSGSSVLYFKFWGQGTLVTVSSGGGGSGGGGSDIQMTQSPSSLSASVGDRVTITCQSSQSVFSNNYLAWFQQKPGQSPKRLIYSASTLASGVPSRFSGSGSGTDFTLTISSLQPEDFATYYCLGSYACSSADCYVFGCGTKVTVLGSGGGGSGGGGSDIQMTQSPSSLSASVGDRVTITCQSSESVYSNNQLSWYQQKPGQPPKLLIYDASDLASGVPSRFSGSGSGTDFTLTISSLQPEDFATYYCAGGFSSSSDTAFGGGTKLTVLG
# chain 2: DIQMTQSPSSLSASVGDRVTITCQASENIYSFLAWYQQKPGKAPKLLIYSASKLAAGVPSRFSGSGSGTDFTLTISSLQPEDFATYYCQQTNRYSNPDIYNVFGTGTKVTVLGGGGGSGGGGSGGGGSGGGGSEVQLVESGGGLVQPGGSLRLSCAASGIDFNSNYYMCWVRQAPGKGLEWIGCIYVGSHVNTYYANWAKGRFTISRDNSKNTVYLQMNSLRAEDTAVYYCATSGSSVLYFKFWGQGTLVTVSSGGGGSGGGGSEVQLVESGGGLVQPGGSLRLSCAASGFSLSSNAMGWVRQAPGKGLEYIGIISVGGFTYYASWAKGRFTISRDNSKNTVYLQMNSLRAEDTATYFCARDRHGGDSSGAFYLWGQGTLVTVSSSGGGGSGGGGSEVQLVESGGGLVQPGGSLRLSCAASGFSLSSYDMSWVRQAPGKCLAWIGASYASGPTYYASWAKGRFTISRDNSKNTVYLQMNSLRAEDTATYFCARGGWTGTSHSNIWGQGTLVTVSS
# notes: Hetero-dimeric MATCH, anti-parallel; diS in anti-CD3 domain, 11 aa GS-linker
# What was measured:
# [1] = biological target: human IL23R IL12Rbeta 1 heterodimer on CHO-K1 cells (human, UniProt Q5VWK5 24-629; P42701 24-662); assay: cell-based or functional assay
# [2] = biological target: T3, human CD3 gamma-epsilon single-chain (human, UniProt P09693 23-103; P07766 23-118); assay: SPR, target immobilised by amine coupling, binder as analyte
# T3 construct: Recombinant protein immobilised on the SPR chip
# cyno CD3 = biological target: T1, cyno CD3; assay: as above
# human serum albumin = biological target: T4, human serum albumin (human, UniProt P02768 25-609); assay: as above
# T4 construct: also called HSA
# human IL-23 receptor ECD = biological target: T2, human IL-23 receptor ECD; assay: as above
Binder,"NFAT assay EC50 (T-cell activation, 5 h) [1]",Kd [2],Kd (cyno CD3),Kd (human serum albumin),Kd (human IL-23 receptor ECD)
B1,0.423 nM,10.1 nM,8.48 nM,0.303 nM,0.0337 nM
B2,46.8 nM,11.9 nM,10.2 nM,0.482 nM,0.036 nM
